Patent publication US20260115250A1, “METHODS OF TREATING AGE-RELATED MACULAR DEGENERATION” (Character Biosciences, Inc., priority 2022, published 2026)

What was measured:
LDLR = LDLR (Homo sapiens, UniProt P01130); assay: lipid-dependent LDLR binding (SPR), single concentration; settings: 1 μM peptide with or without 25 μM DMPC
Procedure: Peptides were diluted in 1×HBS-N buffer with 1 mM CaCl2 to a final concentration of 1 μM and incubated with or without 25 μM DMPC for 1 hour at RT to form lipid complexes. Each peptide was tested in duplicate. LDLR was diluted to 10 μg/mL in 10 mM acetate buffer pH 4.5 and was immobilized (˜400RU) on a CM5 chip via amine coupling utilizing 1×HBS-P+ buffer with 1 mM CaCl2. Test peptides (with or without DMPC) were exposed to immobilized LDLR at a flow rate of […] for 120 seconds in HBS-N with 1 mM CaCl2. Between cycles the surface was regenerated with 3, 30 second injections of 10 mM NaOH and 100 mM EDTA. Data are plotted as max RU values, averaged from three separate runs.

ARPE-19 cells = assay: ARPE-19 GAG-dependent cholesterol import (with or without heparin); assay type: cell-based, human; settings: ARPE-19, 10 μM peptide
Procedure: ARPE-19 cells were seeded on 96-well plates at 25,000 cells per well and grown to confluence. A 2× solution of 500 μM DMPC and 50 μM BODIPY-Cholesterol with or without 100 µg/mL heparin was prepared in serum free DMEM: F12. Peptides were diluted to 20 μM in serum free DMEM: F12 (a 2× solution). Peptides were added to lipid solution in equal parts (60 μL each) and incubated for 1 hour at 37° C. ARPE-19 cells were serum starved in serum free DMEM: F12 for 1 hour at 37° C. Peptide: Lipid complexes (100 μL total volume per well) were transferred to ARPE-19 cells for 2 hours at 37° C. Cells were washed, fixed, and intracellular fluorescence was read on Promega GloMax at 475 nm excitation, 500-550 emission. Fluorescence values were background corrected from no treatment conditions. Data are presented ±SD for 2 runs.

[1] = DMPC solubility assay, 0.5 mM DMPC (turbidity reduction); assay type: biochemical; settings: FIGS. 2A-2D and 3A-3C
Procedure: In this example, peptide stocks were diluted to 200 μM in H2O (a 2× solution) and 50 μL of peptide solution was transferred in triplicate into 96-well plates. A one mM solution of 1,2-dimyristoyl-sn-glycero-3-phosphocholine (DMPC) in H2O was prepared, and using a multichannel pipet, 50 μL DMPC solution was rapidly added to the plate. Peptide and lipid solutions were incubated at room temperature for 15 minutes with a final concentration of 100 μM peptides and 0.5 mM DMPC. After 15 minutes, absorbance was read on a plate reader at 405 nm. […] Data are presented as mean+SD over two runs.
In these experiments, DMPC solubility titration curves were generated. Peptide stocks were diluted to 200 μM in H2O (a 2× solution) and serially diluted in H2O over 4 concentrations, then 50 μL of peptide solutions were distributed in triplicate into 96-well plates. A 1 mM solution of 1,2-dimyristoyl-sn-glycero-3-phosphocholine (DMPC) in H2O was prepared, and using a multichannel pipet, 50 μL DMPC solution was rapidly added to the plate. Peptide and lipid solutions were incubated at room temperature for 15 minutes with final concentrations of 3.16-100 μM peptides and 0.5 mM DMPC. After 15 minutes, absorbance was read on a plate reader at 405 nm. […] Data are presented as mean+SD over two runs. Non-linear regression was used to calculate EC50 values.

[2] = peptide binding to non-oxidized and oxidized lipids (SPR); settings: immobilized peptide; RU normalized to DMPC
Procedure: FIGS. 25A-25O show peptide binding activity to non-oxidized and oxidized lipids via SPR for indicated peptides. Peptides were reconstituted to 50 μg/mL in 10 mM acetate buffer, pH 4.5 and immobilized to ˜200 RU on a CM5 chip via amine coupling. Non-oxidized lipids (DMPC & POPC) and oxidized lipids (POVPC & KOdiA-PC) were diluted to 100 µM in HBS-EP running buffer and exposed to the chip for binding (n=3) at a flow rate of […] for 120 seconds. The surface was regenerated with 20% EtOH. T-001 served as a positive control and T-031 served as a negative control on each chip. For each peptide, the RU response for all lipids was normalized to the DMPC RU values.

Chain of LDLR (P01130 22-860): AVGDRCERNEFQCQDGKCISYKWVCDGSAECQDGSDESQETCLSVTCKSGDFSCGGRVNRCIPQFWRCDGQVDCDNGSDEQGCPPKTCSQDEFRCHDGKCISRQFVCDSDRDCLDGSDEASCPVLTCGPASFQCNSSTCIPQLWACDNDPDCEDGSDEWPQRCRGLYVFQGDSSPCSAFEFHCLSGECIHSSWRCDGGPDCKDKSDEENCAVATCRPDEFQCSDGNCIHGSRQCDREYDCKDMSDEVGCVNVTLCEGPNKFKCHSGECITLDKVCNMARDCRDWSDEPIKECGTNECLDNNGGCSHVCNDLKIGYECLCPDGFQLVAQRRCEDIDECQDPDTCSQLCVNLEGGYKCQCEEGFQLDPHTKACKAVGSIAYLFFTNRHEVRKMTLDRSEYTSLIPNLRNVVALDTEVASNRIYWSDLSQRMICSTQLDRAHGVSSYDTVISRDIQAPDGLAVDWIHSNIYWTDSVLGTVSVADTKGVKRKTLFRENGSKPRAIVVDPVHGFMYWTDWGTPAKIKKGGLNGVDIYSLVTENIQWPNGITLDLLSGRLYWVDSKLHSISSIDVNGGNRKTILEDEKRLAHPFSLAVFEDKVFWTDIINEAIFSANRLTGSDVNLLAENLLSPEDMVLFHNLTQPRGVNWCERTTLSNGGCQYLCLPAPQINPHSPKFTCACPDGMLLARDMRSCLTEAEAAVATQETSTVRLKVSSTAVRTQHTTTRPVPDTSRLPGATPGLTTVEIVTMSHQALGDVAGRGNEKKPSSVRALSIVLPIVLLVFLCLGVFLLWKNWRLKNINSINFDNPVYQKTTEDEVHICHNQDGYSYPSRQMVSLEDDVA

lipid-dependent LDLR binding (RU with lipid vs peptide alone) (LDLR): lipid-dependent LDLR binding activity
B1: T-013: therapeutic peptide (peptide)
chain: TRARLSKELQAAQARLGADMEDVRGRLVQYRGEVQAMLGQSTEELRVRLASHLRKLRKRLLRDADDLQKRLAVYQA
GAG dependence of cholesterol import (ARPE-19 cells): rely on GAG binding for cholesterol import activity | DMPC solubilizing activity [1]: significant activity | binding to oxidized lipids relative to DMPC [2]: binding to at least one oxidized lipid that was equivalent or improved to binding against DMPC
